Legend:
[1] = tested on: hippocampal organotypic sections; experiment: ERK phosphorylation in hippocampal organotypic sections treated with purified mature BDNF; type: cell-based, rat; conditions: hippocampal organotypic sections treated for 30 minutes, Western blot
Experimental: HEK293T cells were transfected (PEI MAX—Polysciences, Inc.) with the plasmids codifying for unica-secTEV (pcDNA-unica-secTEV-SV5) and pro-TEVcs-BDNF (HA-pro-TEVcs-BDNF-Flag-SEP) and left for 24 h at 37° C., 5% CO2.
After 24 h the cells were treated for 1-3 h with rapamycin (1 μM) or DMSO as control. The cells were washed with cold PBS and lysed with lysis buffer containing rapamycin (1 μM) or DMSO. The lysate was immunoprecipitated with FLAG-M2-beads for 1 h and subsequently FLAG peptide (sigma F3290-4 mg) was added. After 1 h the beads were removed by Micro bio-spin Colums®—Bio-Rad. The eluted protein was kept at −20° C. Once quantified by commercially available ELISA kits its biological effect was tested as described in FIG. 6.
In order to test the biological activity of mature BDNF obtained with the chemogenetic strategy in neurons, BDNF was immunoprecipitated and purified by HEK293T cells co-transfected with unica-secTEV and treated with rapamycin. […] In fact, BDNF biochemical features, including the positive charges on its surface, prevent the spreading thereof and keep its action locally at level of synapses. This feature obstructs even the effectiveness of injections of purified BDNF as therapeutic strategy. […]

[2] = tested on: pro-TEVcs-BDNF human recombinant; experiment: Cleavage/maturation of pro-TEVcs-BDNF in transfected HEK293T cells (Western blot); type: cell-based
[3] = tested on: TrkB; experiment: ERK phosphorylation in cells expressing pro-TEVcs-BDNF, unica-secTEV and TrkB-mGFP; type: cell-based; conditions: chemogenetic activation of unica-secTEV; co-expressed TrkB-mGFP
Description: In order to evaluate if mature BDNF obtained after activation of unica-secTEV was able to bind and activate its TrkB endogenous target receptor, pro-TEVcs-BDNF was expressed, unica-secTEV with TrkB-mGFP.

[4] = tested on: CA1 pyramidal neurons; experiment: Dendritic spines of CA1 pyramidal neurons in transfected organotypic hippocampal sections; type: cell-based, rats; conditions: unica-secTEV activated with rapamycin for 24 h
Description: In order to test the biological activity of mature BDNF obtained with the chemogenetic strategy in neurons, BDNF was immunoprecipitated and purified by HEK293T cells co-transfected with unica-secTEV and treated with rapamycin. […] In fact, BDNF biochemical features, including the positive charges on its surface, prevent the spreading thereof and keep its action locally at level of synapses. This feature obstructs even the effectiveness of injections of purified BDNF as therapeutic strategy. Since the extracellular application could involve both sides, even the exogenous application of purified BDNF is not useful in sectioning the roles of pre- and postsynaptic release. […] These gene approaches involve the deletion both of proBDNF and BDNF, the contribution of each form to the observed effect cannot be distinguished. The chemogenetic strategy developed by the inventors to control the protein cleavage is useful even to evaluate the specific autocrine action of BDNF inducible intracellular maturation in CA1 pyramidal neurons. In order to monitor BDNF specific effects in the postsynaptic neurons, organo-typical sections containing the hippocampus of rats with unica-secTEV, pro-TEVcs-BDNF and dsRed2 were transfected ballistically to display in a fluorescent way CA1 pyramidal neurons. After 48 h, unica-secTEV with rapamycin was activated for 24 h.

[5] = target: pro-TEVcs-BDNF (HA-pro-TEVcs-BDNF-Flag-SEP), P23560
[6] = tested on: CFP-TEVcs-YFP; experiment: Cleavage of CFP-TEVcs-YFP substrate in the cytosol of transfected HEK293T cells (Western blot); type: cell-based
Description: Enzymatic Activity of Unica-TEV in Vital Cells • 13) Use CFP-TEVcs-YFP synthetic recombinant protein as substrate;
This artificial construct has two fluorophores conjugated by the cleavage sequence recognized by TEV (TEVcs). AntiGFP (Biolegend) antibody was used to verify cleavage of CFP-TEVcs-YFP by unica-TEV.
In order to do it, HEK293T cells were transfected (PEI MAX—Polysciences, Inc.) with the plasmids codifying constitutively active wild-type TEV (pcDNA-TEV), and engineered TEV with UniRapR (pcDNA-unica-TEV) and left to grow for 24-48 h at 37° C., 5% CO2.
For both of them, CFP-TEVcs-YFP was co-transfected.
After 24h the cells were treated for 1-3 h with rapamycin (1 μM) or DMSO as control. The cells were washed with cold PBS and lysed with lysis buffer containing rapamycin (1 μM) or DMSO. 10% of the volume of samples was prepared (addition of 2× Laemmli protein sample buffer+boiling for 5 min) for the electrophoretic analysis on gel of SDS-polyacrylamide.

[7] = tested on: pro-TEVcs-BDNF; experiment: In vitro protease test after immunoprecipitation of pro-TEVcs-BDNF and unica-TEV; type: biochemical; conditions: in presence of rapamycin; SDS-PAGE
[8] = mutations I138T, S153N and T180A; relative to wild-type TEV; cited from earlier work
[9] = tested on: TMD-TEVcs-tTA; experiment: TMD-TEVcs-tTA / tetO-EGFP reporter expression in HEK293T cells; type: cell-based; conditions: control cells exposed to vehicle, absence of activator
Description: A system was used based upon the expression of a fluorophore after nuclear translocation of a transactivator sequestered on the plasmatic membrane by a TEV recognition site (TEVcs).
In particular, the inventors made to express in HEK293T cells a “tetracycline operator EGFP conjugated” (tetO-EGFP) and a synthetic protein consisting of a transactivator controlled by tetracycline (tTA), bound to a transmembrane domain (TMD) through a TEV recognition site (TEVcs) (TMD-TEVcs-tTA) (FIG. 7).

B1: purified mature BDNF: mature BDNF immunoprecipitated and purified from HEK293T cells co-transfected with unica-secTEV and treated with rapamycin (protein, UniProt P23560 129-247, looked up)
Neurotrophic factor BDNF: HSDPARRGELSVCDSISEWVTAADKKTAVDMSGGTVTVLEKVPVSKGQLKQYFYETKCNPMGYTKEGCRGIDKRHWNSQCRTTQSYVRALTMDSKKRIGWRFIRIDTSCVCTLTIKRGR
modifications: Neurotrophic factor BDNF
notes: mature BDNF immunoprecipitated and purified from HEK293T cells co-transfected with unica-secTEV and treated with rapamycin
[1]
  ERK phosphorylation: significant increase in ERK phosphorylation signals
[1]; listed as mature BNDF
  ERK phosphorylation: induces a phosphorylation of ERK protein

B2: unica-secTEV: unica-TEV with N-terminal secretion signal and mutations for activity in the secretory pathway; SEQ ID Nr. 6 (protein)
chain: QGAQGESLFKGPRDYNPISSTICHLTQESDGHTTSLYGIGFGPFIITNKHLFRRNNGTLLVQSLHGVFKVKNTTTLQQHLIDGRDMIIIRMPKDFPPFPQKLKFREPQREERICLVTTNFQTKSGGSTCVVHYTGMLEDGKKFDSSRDRNKPFKFMLGKQEVIRGWEEGVAQMSVGQRAKLTISPDYAYGATGHGSGSGSGVKDLLQAWDLYYHVFRRISGPPGPGSGLWHEMWHEGLEEASRLYFGERNVKGMFEVLEPLHAMMERGPQTLKETSFNQAYGRDLMEAQEWCRKYMKSGSSGGSGSGIIPPHATLVFDVELLKLEGGSMSSMVSDTSSTFPSSDGTFWKHWIQTKDGQCGNPLVSTRDGFIVGIHSASNFGNTNNYFASVPKNFMELLTNQEAQQWVSGWRLNADSVLWGGHKVFMSKPEEPFQPVKEATQLMNEGGLE
modifications: left off: small tags and cut ends
[2]; in absence of rapamycin, secretory pathway
  cleavage of pro-TEVcs-BDNF (background activity): absence of cleavage background
[2]; in presence of rapamycin, secretory pathway, Western blot
  maturation (cleavage) of pro-TEVcs-BDNF in vital cells: 41-kDa band was noted designating BDNF maturation in the living cells and capability of unica-secTEV to make pro-TEVcs-BDNF to mature in vital cells
[3]
  ERK phosphorylation: clear increase in the kinase phosphorylation
[4]
  morphology of dendritic spines: significant changes in the morphology of dendritic spines
  volume of heads of dendritic spines: increase in the volume of heads of dendritic spines
[4]; co-transfected pro-TEVcs-BDNF and dsRed2
  density of dendritic spines: significant increase in the density of dendritic spines

B3: unica-TEV (unimolecular chemical-activatable TEV) (protein)
chain: GESLFKGPRDYNPISSTICHLTNESDGHTTSLYGIGFGPFIITNKHLFRRNNGTLLVQSLHGVFKVKNTTTLQQHLIDGRDMIIIRMPKDFPPFPQKLKFREPQREERICLVTTNFQTKSGGSTCVVHYTGMLEDGKKFDSSRDRNKPFKFMLGKQEVIRGWEEGVAQMSVGQRAKLTISPDYAYGATGHGSGSGSGVKDLLQAWDLYYHVFRRISGPPGPGSGLWHEMWHEGLEEASRLYFGERNVKGMFEVLEPLHAMMERGPQTLKETSFNQAYGRDLMEAQEWCRKYMKSGSSGGSGSGIIPPHATLVFDVELLKLEGGSMSSMVSDTSCTFPSSDGTFWKHWIQTKDGQCGNPLVSTRDGFIVGIHSASNFTNTNNYFASVPKNFMELLTNQEAQQWVSGWRLNADSVLWGGHKVFMVKPEEPFQPVKEATQLMN
[5]
  in vitro protease test after immunoprecipitation of both proteins, with rapamycin, SDS-PAGE: SDS-PAGE migration of pro-peptide was noted

B4: unica-TEV: engineered single-chain TEV protease with uniRapR domain inserted between S120 and M121, rapamycin-activable; SEQ ID Nr. 5 (protein)
chain: GESLFKGPRDYNPISSTICHLTNESDGHTTSLYGIGFGPFIITNKHLFRRNNGTLLVQSLHGVFKVKNTTTLQQHLIDGRDMIIIRMPKDFPPFPQKLKFREPQREERICLVTTNFQTKSGGSTCVVHYTGMLEDGKKFDSSRDRNKPFKFMLGKQEVIRGWEEGVAQMSVGQRAKLTISPDYAYGATGHGSGSGSGVKDLLQAWDLYYHVFRRISGPPGPGSGLWHEMWHEGLEEASRLYFGERNVKGMFEVLEPLHAMMERGPQTLKETSFNQAYGRDLMEAQEWCRKYMKSGSSGGSGSGIIPPHATLVFDVELLKLEGGSMSSMVSDTSCTFPSSDGTFWKHWIQTKDGQCGNPLVSTRDGFIVGIHSASNFTNTNNYFASVPKNFMELLTNQEAQQWVSGWRLNADSVLWGGHKVFMVKPEEPFQPVKEATQLMN
modifications: Peptide sequence of unica-TEV engineered protease (1)..(440)
[6]; in absence of rapamycin
  cleavage of CFP-TEVcs-YFP (background activity): absence of cleavage background
[6]; in presence of rapamycin
  cleavage of CFP-TEVcs-YFP: identical cleavage profile
[2]; HEK293T, cytosolic localization of TEV protease
  splitting of pro-TEVcs-BDNF in living cells by cytosolic protease: nor unica-TEV in presence of rapamycin, nor an active mutating form of TEV, split pro-TEVcs-BDNF
[7]
  cleavage of pro-TEVcs-BDNF in vitro: SDS-PAGE migration of pro-peptide was noted
[8]
  kcat/Km ratio unica-TEV/wtTEV: 2.81

B5: unica-TEV without linker: unica-TEV construct with no linker (NL) between TEV and UniRapR (protein)
chain: GESLFKGPRDYNPISSTICHLTNESDGHTTSLYGIGFGPFIITNKHLFRRNNGTLLVQSLHGVFKVKNTTTLQQHLIDGRDMIIIRMPKDFPPFPQKLKFREPQREERICLVTTNFQTKSTCVVHYTGMLEDGKKFDSSRDRNKPFKFMLGKQEVIRGWEEGVAQMSVGQRAKLTISPDYAYGATGHGSGSGSGVKDLLQAWDLYYHVFRRISGPPGPGSGLWHEMWHEGLEEASRLYFGERNVKGMFEVLEPLHAMMERGPQTLKETSFNQAYGRDLMEAQEWCRKYMKSGSSGGSGSGIIPPHATLVFDVELLKLEMSSMVSDTSCTFPSSDGIFWKHWIQTKDGQCGSPLVSTRDGFIVGIHSASNFTNTNNYFTSVPKNFMELLTNQEAQQWVSGWRLNADSVLWGGHKVFMVKPEEPFQPVKEATQLMN
[9]
  EGFP signal (background): substantially lower
[9]; listed as NL construct
  EGFP signal (background): almost wholly absent

From patent US20230285520A1, “DEVELOPMENT OF A NEW ENGINEERED TOBACCO ETCH VIRUS (TEV) PROTEASE ACTIVABLE IN THE CYTOSOL OR SECRETORY PATHWAY” (Università Cattolica del Sacro Cuore, priority 2020, published 2023)
